Source: patent US20190002846A1, “POLYPEPTIDES HAVING DEMETHYLATING ACTIVITY” (Genencor International B.V., priority 2015, published 2019)

Tests used:
[1] = Methanol formation by GC, summary statement for lignin and lignin-derived compounds; format: biochemical; details: lignin and lignin-derived compounds 10 g/L, enzyme 0.5 g/L
Description: (§1) Model compounds syringic acid, syringol, 1,3-dimethoxybenzene and 3,5-dimethoxybenzoic acid (12 mM) were incubated with PPO7 from Example 2 (2% loading (w/w)) in 50 mM BisTris buffer pH 6.5 with 10 μM CuSO4. For syringic acid and syringol PPO2 from Example 2 was included as a control. Lignin and lignin-derived compounds (10 g/L) were incubated with PPO7 from Example 2 (0.5 g/L, 5% loading (w/w)). PPO2 from Example 2 was included as a control and incubated using the same conditions. Blanks prepared without the addition of enzyme were included. Incubations were performed in GC headspace vials with a total of 1 mL reaction volume at 25° C. for approximately 48 h while shaking. The reaction was stopped by adding 28 μL 1M HCl to lower the pH to ˜3. Samples were analyzed by GC for methanol formation. A calibration range of 0.23 to 11.5 mM methanol in buffer with HCl was included.

[2] = Demethylation of syringic acid (GC methanol, UHPLC/MSMS); format: biochemical
Description: Syringic acid (12 mM, 2.38 g/L) was incubated with PPO7 from Example 2 (1.2 μM, 0.048 g/L, 2% loading (w/w)) in 50 mM BisTris buffer pH 6.5 with 10 μM CuSO4. Blank prepared without the addition of enzyme was included. Incubations were performed in GC headspace vials with a total of 1 mL reaction volume in duplicate at room temperature for approximately 90 h. The reaction was stopped by adding 28 μL 1M HCl to lower the pH to ˜3. One of the replicates was analyzed by GC for the methanol formation. A calibration range of 0.23 to 11.6 mM methanol in buffer with HCl was included. The second replicate was analyzed using UHPLC and the formation 3,4-dihydroxy-5-methoxybenzoic acid was confirmed using MSMS (see FIG. 5).

[3] = Methanol formation by GC, model compound; format: biochemical; details: for methanol: 2% enzyme loading, approx. 48 h
Description: as §1

[4] = target: T1, RAC incubated with LPMO9B (Thermothelomyces thermophilus, UniProt G2QCJ3); test: RAC hydrolysis assay with LPMO9B and PPO2, PPO7 or AbTyr in the presence of sinapic acid or syringic acid; format: biochemical, Myceliophthora thermophila; details: LPMO9B 5 μg/ml alone = 100%, or with added enzyme, pH 5.0, 50° C., 24 h
T1 construct: made in house; host or cells: Myceliophthora thermophila C1 strain W1L#100.1Δpyr5ΔAlp1
T1 sequence (G2QCJ3 19-323): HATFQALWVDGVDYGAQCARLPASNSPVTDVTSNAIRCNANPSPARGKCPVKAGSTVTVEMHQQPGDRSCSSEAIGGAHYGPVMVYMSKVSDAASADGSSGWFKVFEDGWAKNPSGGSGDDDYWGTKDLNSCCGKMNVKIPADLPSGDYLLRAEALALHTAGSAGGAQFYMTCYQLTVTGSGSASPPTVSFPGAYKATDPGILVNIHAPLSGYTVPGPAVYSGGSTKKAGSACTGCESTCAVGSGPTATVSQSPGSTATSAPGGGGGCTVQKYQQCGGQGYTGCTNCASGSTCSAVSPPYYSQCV
Description: Reducing agents sinapic acid and syringic acid were obtained from Sigma-Aldrich (St. Louis, Mo., USA). RAC was prepared from Avicel by swelling it in phosphoric acid, (Zhang Y H P, Cui J, Lynd L R, & Kuang L R (2006) A transition from cellulose swelling to cellulose dissolution by o-phosphoric acid: Evidence from enzymatic hydrolysis and supramolecular structure. Biomacromolecules 7(2):644-648.). RAC was dissolved in 50 mM phospate buffer (pH 5.0) to a final concentration of 1.5 mg/ml. Copper chloride was added to a final concentration of 2.5 μM and dimethoxy containg reducing agent sinapic acid or syringic acid to a final concentration of 2 mM. LPMO9B (5 μg/ml) with or without PPO2 (5 μg/ml), PPO7 (5 μg/ml) or AbTyr (7.5 U/ml) were added and incubated for 24 h at 50° C. in a head-over-tail rotator in portions of 1 mL total volume (Stuart® rotator, Bibby Scientific LTD, Stone, UK) at 20 rpm. Products were analysed by HPAEC and MALDI-TOF MS as described previously. (Frommhagen M, Sforza S, Westphal A H, Visser J, Hinz S W, Koetsier M J et al. Discovery of the combined oxidative cleavage of plant xylan and cellulose by a new fungal polysaccharide monooxygenase. Biotechnology for Biofuels. 2015; 8:101. doi:10.1186/s13068-015-0284-1). The Activity denoted as “Activity*” represents total release of non-oxidized and C1-oxidized gluco-oligosaccharides from RAC incubated with LPMO9B in the presence of sinapic or syringic acid as a reducing agent and with addition of either AbTyr, PPO7 or PPO2. […] Standard deviations were less than 2%.

[5] = Conversion of syringic acid, sinapic acid and syringol by crude PPOs, absorbance at 400 nm; format: biochemical; details: 4 mM substrate, crude PPO 8.2 μg/mL, pH 6.0 or 7.0, 50 μM CuSO4, room temperature, 2, 22 and 118 h
Description: Syringic acid, sinapic acid and syringol (4 mM) were incubated with crude PPO2, 4, 6 and 7 from Example 5 in 100 mM BisTris buffer pH 6.0 or 7.0 with 50 μM CuSO4. Crude PPOs were dosed on target protein with a final concentration of 8.2 μg/mL. Substrate blanks prepared without the addition of enzyme and enzyme blanks without the addition of substrate were included. Incubations were performed in microtiterplates with a total reaction volume of 150 μL at room temperature for approximately 120 h. After 2, 22 and 118 h absorbance at 400 nm was measured.

[6] = 12 mM syringic acid, enzyme 0.048 g/L, pH 6.5, 10 μM CuSO4, room temperature, approx. 90 h, blank 0

B1: PPO7: Myceliophthora thermophila C1 polyphenoloxidase with demethylating activity, mature form SEQ ID NO: 45 (protein, listed as Myceliophthora thermophila)
chain: NPMHKRWKPNAPRNPDFPLDEVDKLEESIMPNVEAWMSKRPAKYSNCTLENAGIRREWSDLSVDERKEYISAVLCLQSKPSKIPEGEVPGALSRFDDFVATHMTMAGQLHSPTNLFAAHRYFIHAYEKALREECGYKGYQPYMNYDRYADDPLNTPLFDGSDSSMSGNGGPYNYSGIPQPFPKPYNLIPPAGGGGCVTEGPFRDMVVSLGPKGGLFHDIPRNPRADGLGSNPRCLRRDVNKYSARGARANYTYSAIMDNPDIDSFYNRYMGMPQLKGDPYPWGLHSSGHYLIGGDPGGDFYCSPGDPLFYFHHGMLDRVWWIWQMQDPENRVQAVPGTNTMPMPPLMAANLESEAAATTTHKRAVNVSDLVVDLGWTAPPVKLVDLNEQLGGLGGELCYIYV
Methanol concentration compared to the blank (in words) [1]: increased methanol concentration compared to the blank
3,4-dihydroxy-5-methoxybenzoic acid concentration (UHPLC) [2, 6]: 1.61 mM
methanol concentration (GC) [2, 6]: 4.84 mM
syringic acid concentration (UHPLC) ([2]; 12 mM syringic acid, enzyme 0.048 g/L, pH 6.5, 10 μM CuSO4, room temperature, approx. 90 h, blank 10.86): 3.02 mM
Demethylation of syringic acid (in words) ([2]; formation of 3,4-dihydroxy-5-methoxybenzoic acid and methanol): catalyzed the demethylation of syringic acid
Methanol release (in words) ([3]; 1,3-dimethoxybenzene): no methanol release
methanol ([3]; 1,3-dimethoxybenzene 12 mM, 25° C., blank 0): 0 mM
Methanol release (in words) ([3]; 3,5-dimethoxybenzoic acid): no methanol release
methanol ([3]; 3,5-dimethoxybenzoic acid 12 mM, 25° C., blank 0): 0 mM
Demethylation of syringic acid (in words) ([3]; Example 9 conditions): catalyzed the demethylation
Demethylation of syringol (in words) ([3]; Example 9 conditions): catalyzed the demethylation
methanol ([3]; Syringic acid 12 mM, pH 6.5, 10 μM CuSO4, 25° C., blank 0): 4.58 mM
methanol ([3]; Syringol 12 mM, pH 6.5, 10 μM CuSO4, 25° C., blank 0.06): 5.73 mM
Activity: total release of non-oxidized and C1-oxidized gluco-oligosaccharides from RAC ([4]; reducing agent sinapic acid 2 mM): 195%
Activity: total release of non-oxidized and C1-oxidized gluco-oligosaccharides from RAC ([4]; reducing agent syringic acid 2 mM): 142%
Conversion of substrates (absorbance at 400 nm) [5]: able to convert syringic acid, sinapic acid and syringol
